Assay results: patent US20220089784A1 (University of California, published 2022)

T1: BoNT/F1 (proteolytic BoNT/F) (Clostridium botulinum, UniProt A7GBG3 1-1278)
T1 sequence: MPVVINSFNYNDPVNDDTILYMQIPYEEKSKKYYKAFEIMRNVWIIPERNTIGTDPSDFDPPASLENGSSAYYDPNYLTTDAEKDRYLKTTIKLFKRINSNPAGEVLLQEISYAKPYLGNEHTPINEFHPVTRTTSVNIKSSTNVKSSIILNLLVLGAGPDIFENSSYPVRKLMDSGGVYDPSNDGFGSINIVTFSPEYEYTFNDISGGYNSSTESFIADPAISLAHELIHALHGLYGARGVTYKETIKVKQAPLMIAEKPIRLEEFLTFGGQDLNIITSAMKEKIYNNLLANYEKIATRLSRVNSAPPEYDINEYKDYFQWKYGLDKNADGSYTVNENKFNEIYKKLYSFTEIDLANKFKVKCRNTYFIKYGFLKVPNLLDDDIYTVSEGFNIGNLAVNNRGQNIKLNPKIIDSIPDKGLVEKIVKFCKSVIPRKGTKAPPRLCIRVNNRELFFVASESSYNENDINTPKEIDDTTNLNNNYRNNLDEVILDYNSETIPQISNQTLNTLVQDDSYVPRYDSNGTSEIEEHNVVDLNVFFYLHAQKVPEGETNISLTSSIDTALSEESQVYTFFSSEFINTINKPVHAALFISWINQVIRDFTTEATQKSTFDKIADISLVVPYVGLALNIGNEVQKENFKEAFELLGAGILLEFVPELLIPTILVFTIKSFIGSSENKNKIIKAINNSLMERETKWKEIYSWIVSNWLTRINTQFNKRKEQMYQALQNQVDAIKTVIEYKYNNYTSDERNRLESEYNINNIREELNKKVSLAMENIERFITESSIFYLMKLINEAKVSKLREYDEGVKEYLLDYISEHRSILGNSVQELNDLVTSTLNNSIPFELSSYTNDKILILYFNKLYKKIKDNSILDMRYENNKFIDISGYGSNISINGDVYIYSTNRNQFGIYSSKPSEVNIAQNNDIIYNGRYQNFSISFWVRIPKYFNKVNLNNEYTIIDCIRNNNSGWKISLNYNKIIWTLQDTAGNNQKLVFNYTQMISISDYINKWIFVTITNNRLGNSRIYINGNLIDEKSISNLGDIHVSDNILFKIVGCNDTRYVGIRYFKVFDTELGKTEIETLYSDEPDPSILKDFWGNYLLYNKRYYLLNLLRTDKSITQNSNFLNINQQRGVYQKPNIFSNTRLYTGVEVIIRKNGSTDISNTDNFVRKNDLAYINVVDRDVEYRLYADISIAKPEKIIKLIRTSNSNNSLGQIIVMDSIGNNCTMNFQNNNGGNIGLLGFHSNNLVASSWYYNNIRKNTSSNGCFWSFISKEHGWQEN

T2: BoNT/F 202F (Clostridium botulinum, UniProt P30996 1-1274)
T2 sequence: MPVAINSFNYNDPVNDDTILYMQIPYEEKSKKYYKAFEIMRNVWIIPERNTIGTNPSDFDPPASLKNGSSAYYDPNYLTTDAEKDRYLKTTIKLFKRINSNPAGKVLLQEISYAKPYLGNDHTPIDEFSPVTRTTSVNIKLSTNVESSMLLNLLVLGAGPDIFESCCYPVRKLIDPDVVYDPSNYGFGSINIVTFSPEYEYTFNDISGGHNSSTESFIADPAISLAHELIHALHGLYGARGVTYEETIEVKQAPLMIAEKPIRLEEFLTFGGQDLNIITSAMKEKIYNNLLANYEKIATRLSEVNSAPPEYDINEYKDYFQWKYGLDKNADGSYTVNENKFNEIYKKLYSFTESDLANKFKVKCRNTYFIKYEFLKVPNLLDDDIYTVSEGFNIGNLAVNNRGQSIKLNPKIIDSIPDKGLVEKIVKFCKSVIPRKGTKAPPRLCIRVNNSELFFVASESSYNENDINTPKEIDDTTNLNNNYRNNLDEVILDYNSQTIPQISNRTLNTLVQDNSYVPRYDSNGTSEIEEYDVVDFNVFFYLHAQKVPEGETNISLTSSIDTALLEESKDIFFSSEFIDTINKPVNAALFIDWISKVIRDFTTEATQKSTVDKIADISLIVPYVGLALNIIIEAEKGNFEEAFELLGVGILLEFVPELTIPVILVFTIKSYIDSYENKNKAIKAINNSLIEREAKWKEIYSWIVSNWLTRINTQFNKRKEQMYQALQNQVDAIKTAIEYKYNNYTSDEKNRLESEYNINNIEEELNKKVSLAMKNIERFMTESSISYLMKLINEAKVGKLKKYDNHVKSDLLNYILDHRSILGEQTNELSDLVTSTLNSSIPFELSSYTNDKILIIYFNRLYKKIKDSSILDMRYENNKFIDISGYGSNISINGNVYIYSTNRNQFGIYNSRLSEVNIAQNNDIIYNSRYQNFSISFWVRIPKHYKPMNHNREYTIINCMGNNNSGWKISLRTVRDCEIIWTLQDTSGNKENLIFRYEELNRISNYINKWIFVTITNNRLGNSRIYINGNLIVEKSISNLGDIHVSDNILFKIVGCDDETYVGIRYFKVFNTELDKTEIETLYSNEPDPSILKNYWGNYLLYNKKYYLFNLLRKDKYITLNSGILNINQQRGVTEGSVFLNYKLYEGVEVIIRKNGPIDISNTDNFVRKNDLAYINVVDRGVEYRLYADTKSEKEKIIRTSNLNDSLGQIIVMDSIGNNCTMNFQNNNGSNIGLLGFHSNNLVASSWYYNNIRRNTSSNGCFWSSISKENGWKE


Key:
[1] = biological target: T1, BoNT/F1 (proteolytic BoNT/F); assay: yeast scFv FACS
BoNT/F 202F = biological target: T2, BoNT/F 202F; assay: yeast scFv FACS

| Binder | Kd [1] [nM] | binding result (BoNT/F 202F) |
| --- | --- | --- |
| 39H6 scFv (scFv, V domains shown) VH: EVQLVPSGGNLVQPGGSLRLSCAATGPIGSHWMTWVRQAPGQGLEWVANINLDGTEKFYVDSVKGRFTVSRDNRKSSVFLQMNNLRVDDTAVYYCARLQWGGYNGWLSPWGQGTLVTVSS VL: DIVMTQSPPSLSASVGDRVSLTCRASEYIGTSLNWYQQKPGKAPKLLIYAASALHSGVPSRFSGSGSGTDFTLTISGLQPEDFATYYCQQANDLPLTFGGGTKLEIK | 0.526 | binds |
| 39D5.1 scFv (scFv, V domains shown) VH: EVQLVQSGGNLVQPGGSLRLSCAATGPIGSHWMTWVRQAPGQGLEWVASINLDGTEKFYVDSVKGRFTVSRDNRKSSVFLQMNNLRVDDTAVYYCARLQWGGYNGWLSPWGQGTLVTVSS VL: DIVMTQSPPSLSASVGDRVSLTCRASEYIGTSLNWYQQKPGKAPKLLIYAASALHSGVPSRFSGSGSGTDFTLTISGLQPEDFATYYCQQANDLPLTFGGGTKLEIK | 1.77 | binds |
| 43D3 scFv (scFv, V domains shown) VH: EVQQVQSGGNLVQPGGSLRLSCAATGPIGSHWMTWVRQAPGQGLEWVANINLDGTEKFYVDSVKGRFTVSRDNRKSSVFLQMNNLRVDDTAVYYCARLQWGGYNGWLSPWGQGTLVTVSS VL: DIVMTQSPPSLSASVGDRVSLTCRASEYIGTSLNWYQQKPGKAPKLLIYAASALHSGVPSRFSGSGSGTDFTLTISGLQPEDFATYYCQQANDLPLTFGGGTKLENK | 0.333 | binds |
| 39A1 scFv (scFv, V domains shown) VH: EVQQVQSGGNLVQPGGSLRLSCAATGPIGSHWMTWVRQAPGQGLEWVANINLDGTEKFYVDSVKGRFTVSRDNRKSSVFLQMNNLRVDDTAVYYCARLQWGGYNGWLSPWGQGTLVTVSS VL: DIVMTQSPPSLSASVGDRVSLTCRASEYIGTSLNWYQQKPGKAPKLLIYAASALHSGVPSRFSGSGSGTDFTLTISGLQPEDFATYYCQQANDLPLTFGGGTKLEIK | 0.588 | binds |
| 41F7 scFv (scFv, V domains shown) VH: EVQLVPSGGNLVQPGGSLRLSCAATGPIGSHWMTWVRQAPGQGLEWVANINLDGTEKFYVDSVKGRFTVSRDNRKSSVFLQMNNLRVDDTAVYYCARLQWGGYNGWLSPWGQGTLVTVSS VL: DILMTQSPPSLSASVGDRVSLTCRASEYIGTSLNWYQQKPGKAPKLLIYAASALHSGVPSRFSGSGSGTDFTLTISGLQPEDFATYYCQQANDLPLTFGGGTKLEIK | 0.566 | binds |
| 41C2 scFv (scFv, V domains shown) VH: EVQQVQSGGNLVQPGGSLRLSCAATGPIGSHWMTWVRQAPGQGLEWVANINLDGTEKFYVDSVKGRFTVSRDNRKSSVFLQMNNLRVDDTAVYYCARLQWGGYNGWLSPWGQGTLVTVSS VL: DIVMTQSPPSLSASVGDRVSLTCRASEYIGTSLNWYQQKPGKAPKLLIYAASALHSGVPSRFSGSGSGTDFTLTISGLQPEDFATYYCQQTNDLPLTFGGGTKLEIK | 0.355 | binds |
| 41E2 scFv (scFv, V domains shown) VH: EVQLVPSGGNLVQPGGSLRLSCAATGPIGSHWMTWVRQAPGQGLEWVANINLDGTEKFYVDSVKGRFTVSRDNRKSSVFLQMNNLRVDDTAVYYCARLQWGGYNGWLSPWGQGTLVTVSS VL: DIVMIQSPPSLSASVGDRVSLTCRASEYIGTSLNWYQQKPGKAPKLLIYAASALHSGVPSRFSGSGSGTDFTLTISGLQPEDFATYYCQQANDLPLTFGGGTKLEIK | 0.584 | binds |
